Earlier results on one substance are cited in paper PMC8223436.

In general, Kd refers to the equilibrium constant for the complex coming apart.

The target in this data set is HER2 domain IV (Homo sapiens) (UniProt P04626).

As for Trastuzumab, the Kd is 0.56 nM.
